Assay results published in paper PMC9536601.

Experiments:
[1] = molecular target: chimeric hexon of the Ad5 vector Ad5:H6.3 (Ad6 hexon section with HVR7 mutations, on virions) (human adenovirus 5 | human adenovirus 6) (UniProt P04133); test: SPR; Biacore T200; about 300 to 5,000 RU of Ad virions immobilised on a CM5 chip, coagulation factors flowed over at four concentrations, 50 uL/min; running buffer 10 mM HEPES, 150 mM NaCl, 1 mM CaCl2, 0.5 mM MgCl2, 0.1% BSA, 0.05% polysorbate 20, pH 7.4; regeneration with 3 mM EDTA; global fit to a 1:1 kinetic interaction model, double referencing
[2] = molecular target: chimeric hexon of Ad5:H1.6 (Ad5 vector, hexon residues 112-593 from Ad1 hexon, HVR7 IGVTDRY), on the virion (human adenovirus type 5 | human adenovirus type 1) (UniProt P04133); test: SPR; Biacore T200; about 300 to 5,000 RU of Ad virions immobilised on a CM5 chip, coagulation factors flowed over at four concentrations, 50 uL/min; 10 mM HEPES, 150 mM NaCl, 1 mM CaCl2, 0.5 mM MgCl2, 0.1% BSA, 0.05% polysorbate 20, pH 7.4; global fit to a 1:1 kinetic interaction model, double referencing

Substance | Kd [1] [nM] | koff [1] [s⁻¹] | kon [1] [M⁻¹ s⁻¹] | Kd [2] [nM]
mouse prothrombin (coagulation factor II) (from UniProt P19221 44-618) (natural protein) | 1600 | 0.0304 | 19700 | 
mouse coagulation factor X (from UniProt O88947 41-481) (natural protein) | 1200 | 0.26 | 214000 | 4200
